1 molecule from patent US20110117110A1 (FACET BIOTECH, published 2011) can be followed below.

In experiment [1] the target is T1, EGFR on A431 cells (human, UniProt P00533 25-1210).
T1 construct: whole, on cells; also called epidermal growth factor receptor; ErbB-1
Put plainly: FACS competition on A431 cells: unlabelled antibody against biotinylated cetuximab (0.5 µg/mL), streptavidin-RPE detection; Trial 3.
Experimental: (§1) A431 cells were grown to 2×10⁵ cells per well of V-bottom 96-well plates. Cells were washed with FACS staining buffer (FSB). […] The plates were then incubated on ice for 1 hour, and then washed twice with FSB. […] Cells were washed two times with FSB, and stained cells were resuspended with 200 μL of fixing buffer (1% paraformaldehyde). Samples were read using a flow cytometer.

In experiment [2] the target is T1, EGFR on A431 cells. Nature of the experiment: FACS competition on A431 cells against biotinylated cetuximab; panel FACS Competition (3).
Experimental: as §1
Experiment [3] deals with T1, EGFR on A431 cells. Put plainly: FACS competition on A431 cells: unlabelled antibody against biotinylated cetuximab (0.5 µg/mL), streptavidin-RPE detection; column Average of Trials 1-3, column SD prints 0.4.
Experimental: as §1
For experiment [4], the target named is T1, EGFR on A431 cells. Nature of the experiment: FACS competition on A431 cells: unlabelled antibody against biotinylated cetuximab (0.5 µg/mL), streptavidin-RPE detection; Trial 2.
Experimental: as §1
Experiment [5] concerns the target T1, EGFR on A431 cells. Nature of the experiment: FACS competition on A431 cells: unlabelled antibody against biotinylated cetuximab (0.5 µg/mL), streptavidin-RPE detection; Trial 1.
Experimental: as §1
Experiment [6] addresses T1, EGFR on A431 cells. Nature of the experiment: FACS competition on A431 cells against biotinylated cetuximab; panel FACS Competition (2).
Experimental: as §1

B1: hu225 (antibody, V domains shown)
VH: EVQLVESGGGLVQPGGSLRLSCAASGFSLTNYGVHWVRQAPGKGLEWLGVIWSGGNTDYNTPFTSRLTINKDNSKNTVYLQMNSLRAEDTAVYYCARALTYYDYEFAYWGQGTLVTVSS
VL: DILLTQSPGTLSLSPGERATLSCRASQSIGTNIHWYQQKPGQAPRLLIKYASESISGIPDRFSGSGSGTDFTLTISRLEPEDFAVYYCQQNNNWPTTFGQGTKLEIKR
notes: also called humanized version of MAb225; humanized cetuximab
With B1, the IC50 (in general, the concentration that inhibits the measured activity by half) came out at 2.62 µg/mL in experiment [1], 1.79 µg/mL in experiment [3], 1.06 µg/mL in experiment [4] and 1.71 µg/mL in experiment [5]. Moreover, the “IC50 (read off the curve)” value is ~3 µg/mL in experiment [2] and ~1 µg/mL in experiment [6].
